These results are taken from article PMC4810121, “Proteomics Analysis Reveals Novel RASSF2 Interaction Partners” (Cancers, 2016).

In this assay the target is T1, RASSF2 (expression construct precipitated with anti-Flag) (UniProt P50749 1-326).
T1 construct: RASSF2; The methods describe no Flag-tagged construct; That RASSF2 carried the Flag tag is surmised, because C1QBP is the GFP-tagged partner and the blot used anti-Flag and anti-GFP; source: HEK-293T, transfected, in lysate
T1 sequence (looked up): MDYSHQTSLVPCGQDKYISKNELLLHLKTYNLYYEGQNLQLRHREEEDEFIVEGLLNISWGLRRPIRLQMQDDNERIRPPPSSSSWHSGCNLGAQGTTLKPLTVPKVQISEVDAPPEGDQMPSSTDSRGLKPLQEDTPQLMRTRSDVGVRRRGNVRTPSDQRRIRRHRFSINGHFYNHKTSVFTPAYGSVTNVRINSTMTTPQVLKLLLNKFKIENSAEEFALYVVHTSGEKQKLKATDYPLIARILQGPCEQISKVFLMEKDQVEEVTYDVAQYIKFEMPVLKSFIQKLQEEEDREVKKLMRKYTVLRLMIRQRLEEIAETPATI
As to the kind of experiment: co-IP; HEK-293T co-transfected with RASSF2, C1QBP and with or without activated K-Ras for 24 hours; lysates immunoprecipitated with anti-Flag, blotted with anti-Flag and anti-GFP. Particulars: partners not purified.

B1: GFP-C1QBP (natural protein, UniProt Q07021 74-282, looked up)
chain: LHTDGDKAFVDFLSDEIKEERKIQKHKTLPKMSGGWELELNGTEAKLVRKVAGEKITVTFNINNSIPPTFDGEEEPSQGQKVEEQEPELTSTPNFVVEVIKNDDGKKALVLDCHYPEDEVGQEDEAESDIFSIREVSFQSTGESEWKDTNYTLNTDSLDWALYDHLMDFLADRGVDNTFADELVELSTALEHQEYITFLEDLKSFVKSQ
notes: C1QBP; cDNA from GeneCopoeia, PCR amplified and cloned into pEGFP-C1; source: HEK-293T, transfected, in lysate
Take B1: the “fold change of the co-precipitate with activated Ras against without” value is approximately 2 fold.
